From patent US9579367B2 come the findings set out here.

In the test the target is tissue plasminogen activator (tPA).

B1: Xa-K (FXa chemically modified, via a histidine residue in its active site, with a C-terminal lysine tethered by a PEG4 spacer) (enzyme)
light: ANSFLEEMKKGHLERECMEETCSYEEAREVFEDSDKTNEFWNKYKDGDQCETSPCQNQGKCKDGLGEYTCTCLEGFEGKNCELFTRKLCSLDNGDCDQFCHEEQNSVVCSCARGYTLADNGKACIPTGPYPCGKQTLER
heavy: IVGGQECKDGECPWQALLINEENEGFCGGTILSEFYILTAAHCLYQAKRFKVRVGDRNTEQEEGGEAVHEVEVVIKHNRFTKETYDFDIAVLRLKTPITFRMNVAPACLPERDWAESTLMTQKTGIVSGFGRTHEKGRQSTRLKMLEVPYVDRNSCKLSSSFIITQNMFCAGYDTKQEDACQGDSGGPHVTRFKDTYFVTGIVSWGEGCARKGKYGIYTKVTAFLKWIDRSMKTRGLPKAKSHAPEVITSSPLK
modifications: active-site histidine (position 276 in Table A, UniProt P00742 numbering) covalently linked to (D)Phe-Pro-Arg-CH2- carrying a thiol-maleimide-PEG4 spacer with a C-terminally tethered lysine (Lys-mPEG4)
Regarding B1, the time to achieve 50% lysis of a plasma clot (turbidity, OD405nm) was determined as 10 fold.
